Experimental data from patent publication US20220220218A1 (JIANGSU HENGRUI MEDICINE, published 2022).
Numbering of substitutions follows the chain as printed.

T1: human CD73 (huCD73) protein, antigen of the Biacore assay (human, UniProt P21589 27-547, limits assumed)
T1 construct: also called human CD73 antigen
T1 sequence (looked up): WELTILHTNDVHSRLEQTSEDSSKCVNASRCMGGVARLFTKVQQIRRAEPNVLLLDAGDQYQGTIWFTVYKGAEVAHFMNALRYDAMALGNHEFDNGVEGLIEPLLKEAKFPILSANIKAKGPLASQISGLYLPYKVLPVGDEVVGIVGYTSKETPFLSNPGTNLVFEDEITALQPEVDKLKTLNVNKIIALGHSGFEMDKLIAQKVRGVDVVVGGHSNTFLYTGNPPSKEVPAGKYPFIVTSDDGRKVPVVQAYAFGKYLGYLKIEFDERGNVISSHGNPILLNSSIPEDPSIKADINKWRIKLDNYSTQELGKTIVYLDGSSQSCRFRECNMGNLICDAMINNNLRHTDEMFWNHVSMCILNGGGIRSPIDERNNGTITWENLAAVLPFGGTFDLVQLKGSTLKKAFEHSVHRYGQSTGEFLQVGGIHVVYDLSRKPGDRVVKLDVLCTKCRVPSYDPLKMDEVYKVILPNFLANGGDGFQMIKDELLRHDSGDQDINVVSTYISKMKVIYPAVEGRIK

T2: cynomolgus monkey CD73/NT5E protein (His tag), Sino Biological Cat. No. 90192-C08H (cynomolgus monkey, UniProt A0A2K5V5U7 27-547)
T2 construct: also called cynomolgus monkey CD73 protein; cynoCD73; not shown: His tag
T2 sequence: T1 sequence (looked up) with M199T, T350A, V466I

B1: Hab110.21 (antibody, human IgG1, kappa, V domains shown)
VH: EVQLVQSGAEVKKPGASVKVSCKASGYTFTSYTMHWVRQAPGQRLEWMGYINPNSFYIEYNQKFKDRVTITRDTSASTAYMELSSLRSEDTAVYYCARGDYDLFYDMDNWGQGTTVTVSS
VL: DIQMTQSPSSLSASVGDRVTITCRASQDIGNSLNWLQQKPGKAIKRLIYATFRLDSGVPSRFSGSRSGTEYTLTISSLQPEDFATYYCQQYASFPWTFGGGTKVEIKR
notes: also called humanized antibody of mab110
B2: Hab127.31d (antibody, human IgG1, kappa, V domains shown)
VH: EVQLVQSGAEVKKPGASVKVSCKASGYTFTAYFMNWVRQAPGQGLEWMGRIYHNKGDTFYSQKFKGRVTMTVDKSTSTVYMELSSLRSEDTAVYYCATSYVGDWGQGTTVTVSS
VL: B1 VL with N31D, K42G, I44L, F52S, R53S, R66G, Q89L
notes: also called humanized antibody of mab127
B3: CPX006 (antibody CPX-006 disclosed in patent application WO2018013611) (antibody, V domains shown)
VH: QVQLVQSGAEVEKPGASVKVSCKASGYTFTSYWITWVRQAPGQGLEWMGDIYPGSGNTNYNEKFKTRVTITADKSTSTAYMELSSLRSEDTAVYYCAKEGGLTTEDYALDYWGQGTLVTVSS
VL: EIVLTQSPATLSLSPGERATLSCRASKNVSTSGYSYMHWYQQKPGQAPRLLIYLASNLESGIPPRFSGSGYGTDFTLTINNIESEDAAYYFCQHSRELPFTFGQGTKVEIKR
B4: Hab108.64 (antibody, human IgG1, kappa, V domains shown)
VH: EVTLKQSGPGLVKPTETLTLTCTVSGFSLSSYGIQWVRQPPGKGLEWLGVIWSGGSADYNAAFISRLTISKDTSKSQVVLTMTNMDPVDTATYYCAGQYGSVWGQGTLVTVSS
VL: DIQMTQSPSSLSASVGDRVTITCRASQDIGDRLNWLQQKPGGAIKRLIYATSSLDSGVPKRFSGSGSGTEYTLTISSLQPEDFATYYCLQYAGSWTFGGGTKVEIKR
notes: also called humanized antibody of mab108

Target: T1, human CD73 (huCD73) protein, antigen of …
Assay: SPR Biacore T200; antibody captured on Protein A chip, CD73 in flow; 1:1 Langmuir
Method in brief: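 Antibody was captured on a Protein A chip and human or cynomolgus CD73 antigen was flowed over it in HBS-EP running buffer. Surfaces were regenerated with glycine-HCl pH 1.5, and affinities came from a 1:1 Langmuir fit.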

Kd	koff	kon	Binder
0.0944 nM	6.14e-05 s⁻¹	650000 M⁻¹ s⁻¹	B1
0.257 nM	5.81e-05 s⁻¹	226000 M⁻¹ s⁻¹	B2
1.85 nM	0.000368 s⁻¹	199000 M⁻¹ s⁻¹	B3
0.412 nM	9.24e-05 s⁻¹	224000 M⁻¹ s⁻¹	B4

Target: T2, cynomolgus monkey CD73/NT5E protein …
Assay: SPR Biacore T200; antibody captured on Protein A chip, cynoCD73 in flow; 1:1 Langmuir
From the text: In this experiment, Biacore instrument was used to determine the affinity of the humanized anti-CD73 antibodies to be tested with human CD73 (huCD73) and monkey CD73 (cynoCD73).
A certain amount of test antibody was affinity-captured with Protein A biosensing chip (Cat. #29127556, GE), and then a certain concentration of human or monkey CD73 antigen was allowed to flow through the surface of the chip. The reaction signals were detected in real time with Biacore instrument (Biacore T200, GE) to generate a binding and dissociation curve. At the end of each cycle, after the dissociation was completed, the biosensor chip was washed and regenerated with Glycine-HCl, pH1.5 (Cat. #BR-1003-54, GE). The running buffer for the assay was 1×HBS-EP buffer solution (Cat. #BR-1001-88, GE).
The data obtained from the experiment was fitted against (1:1) Langmuir model using GE Biacore T200 Evaluation version 3.0 software, and the affinity values were obtained, as shown in Table 12 and Table 13 for details.

Kd	koff	kon	Binder
0.0489 nM	3.45e-05 s⁻¹	704000 M⁻¹ s⁻¹	B1
0.0699 nM	1.86e-05 s⁻¹	266000 M⁻¹ s⁻¹	B2
0.166 nM	4.24e-05 s⁻¹	256000 M⁻¹ s⁻¹	B4
